This assay addresses purified hTMPRSS2 protein (human, UniProt O15393 1-492). The experiment in a line: SPR. In general terms: Surface plasmon resonance follows binding to a sensor surface in real time, without labels.

purified hTMPRSS2 protein, sequence (O15393 whole entry): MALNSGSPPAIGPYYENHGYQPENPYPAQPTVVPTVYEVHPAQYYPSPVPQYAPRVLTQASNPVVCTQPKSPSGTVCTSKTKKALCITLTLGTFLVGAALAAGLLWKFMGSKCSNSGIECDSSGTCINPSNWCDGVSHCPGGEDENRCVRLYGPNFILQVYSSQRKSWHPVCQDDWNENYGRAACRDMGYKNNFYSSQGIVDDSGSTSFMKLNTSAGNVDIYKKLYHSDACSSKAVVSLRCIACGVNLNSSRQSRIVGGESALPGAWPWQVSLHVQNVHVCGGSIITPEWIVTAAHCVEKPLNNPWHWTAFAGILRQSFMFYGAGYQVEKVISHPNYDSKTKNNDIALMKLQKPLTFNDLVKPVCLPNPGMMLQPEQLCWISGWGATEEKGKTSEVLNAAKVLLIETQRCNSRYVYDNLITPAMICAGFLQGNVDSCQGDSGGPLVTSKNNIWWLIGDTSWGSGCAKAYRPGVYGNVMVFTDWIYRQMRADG

B1: Spike protein (recombinant, analyte of the ternary SPR experiment) (natural protein)
chain: CQTTNGLNTSYSVCNGCVGYSENVFAVESGGYIPSDFAFNNWFLLTNTSSVVDGVVRSFQPLLLNCLWSVSGLRFTTGFVYFNGTGRGDCKGFSSDVLSDVIRYNLNFEENLRRGTILFKTSYGVVVFYCTNNTLVSGDAHIPFGTVLGNFYCFVNTTIGNETTSAFVGALPKTVREFVISRTGHFYINGYRYFTLGNVEAVNFNVTTAETTDFCTVALASYADVLVNVSQTSIANIIYCNSVINRLRCDQLSFDVPDGFYSTSPIQSVELPVSIVSLPVYHKHTFIVLYVDFKPQSGGGKCFNCYPAGVNITLANFNETKGPLCVDTSHFTTKYVAVYANVGRWSASINTGNCPFSFGKVNNFVKFGSVCFSLKDIPGGCAMPIVANWAYSKYYTIGSLYVSWSDGDGITGVPQPVEGVSSFMNVTLDKCTKYNIYDVSGVGVIRVSNDTFLNGITYTSTSGNLLGFKDVTKGTIYSITPCNPPDQLVVYQQAVVGAMLSENFTSYGFSNVVELPKFFYASNGTYNCTDAVLTYSSFGVCADGSIIAVQPRNVSYDSVSAIVTANLSIPSNWTTSVQVEYLQITSTPIVVDCSTYVCNGNVRCVELLKQYTSACKTIEDALRNSARLESADVSEMLTFDKKAFTLANVSSFGDYNLSSVIPSLPTSGSRVAGRSAIEDILFSKLVTSGLGTVDADYKKCTKGLSIADLACAQYYNGIMVLPGVADAERMAMYTGSLIGGIALGGLTSAVSIPFSLAIQARLNYVALQTDVLQENQKILAASFNKAMTNIVDAFTGVNDAITQTSQALQTVATALNKIQDVVNQQGNSLNHLTSQLRQNFQAISSSIQAIYDRLDTIQADQQVDRLITGRLAALNVFVSHTLTKYTEVRASRQLAQQKVNECVKSQSKRYGFCGNGTHIFSIVNAAPEGLVFLHTVLLPTQYKDVEAWSGLCVDGTNGYVLRQPNLALYKEGNYYRITSRIMFEPRIPTMADFVQIENCNVTFVNISRSELQTIVPEYIDVNKTLQELSYKLPNYTVPDLVVEQYNQTILNLTSEISTLENKSAELNYTVQKLQTLIDNINSTLVDLKWLNRVETYIKWP
Consider B1, for which the Kd (as a rule, a measure of binding affinity in units of concentration) was 1360 nM. This counts as single-digit micromolar.

The record behind these values is publication PMC12399569 (2025).
